# Assay results reported in patent US20220267407A1 (published 2022).
# Tests used:
# [1] = target: T1, LMP1 (EBV) peptide on HLA-C*15:02 (human); test: cytokine release
# T1 peptide: NSNEGRHHL
# [2] = target: T2, LMP1 (EBV) peptide on HLA-C*15:02 (human); test: cytokine release
# T2 peptide: DSLPHPQQA
# [3] = target: T3, LMP1 (EBV) peptide on HLA-C*15:02 (human); test: cytokine release
# T3 peptide: YLQQNWWTL
# [4] = target: T4, LMP1 (EBV) peptide on HLA-C*15:02 (human); test: half-maximum IFN-gamma release; peptide titration on K562-HLA-C*15:02, ELISA after 24 h, E:T 1:1; full-length, on cells
# T4 peptide: QQNWWTLLV
# [5] = target: T5, LMP2A (EBV) peptide on HLA-A*02:01 (human); test: cytokine release
# T5 peptide: MCLGGLLTMV
# [6] = target: T6, LMP2A (EBV) peptide on HLA-A*02:01 (human); test: half-maximum IFN-gamma release; peptide titration on K562-HLA-A*02:01, ELISA after 24 h, E:T 1:1; full-length, on cells
# T6 peptide: CLGGLLTMV
# [7] = target: T6, LMP2A (EBV) peptide on HLA-A*02:01; test: the description's statement of this TCR's peptide sensitivity; K562-HLA-A*02:01 loaded with peptide, E:T 1:1; full-length, on cells
# [8] = target: T7, EBNA3C (EBV) peptide on HLA-B*44:02 (human); test: cytokine release
# T7 peptide: SERLVPEESY
# [9] = target: T8, EBNA3C (EBV) peptide on HLA-B*44:02 (human); test: cytokine release
# T8 peptide: WLLTSPSQSW
# [10] = target: T9, EBNA3C (EBV) peptide on HLA-B*44:02 (human); test: cytokine release
# T9 peptide: LLTSPSQSW
# [11] = target: T10, EBNA3C (EBV) peptide on HLA-B*44:02 (human); test: half-maximum IFN-gamma release; peptide titration on K562-HLA-B*44:02, ELISA after 24 h, E:T 1:1; full-length, on cells
# T10 peptide: AEGGVGWRHW
binder,measurement,setting,value
"TCR83 (TCR, V domains shown) Valpha: GQNIDQPTEMTATEGAIVQINCTYQTSGFNGLFWYQQHAGEAPTFLSYNVLDGLEEKGRFSSFLSRSKGYSYLLLKELQMKDSASYLCAAVNNAGNMLTFGGGTRLMVKP Vbeta: DTAVSQTPKYLVTQMGNDKSIKCEQNLGHDTMYWYKQDSKKFLKIMFSYNNKELIINETVPNRFSPKSPDKAHLNLHINSLELGDSAVYFCASSQGYGGPSTDTQYFGPGTRLTVL",binding result,[1],no recognition
same,binding result,[2],no recognition
same,binding result,[3],no recognition
same,EC50 of peptide,[4],2 nM
"TCR06 (TCR, V domains shown) Valpha: KQEVTQIPAALSVPEGENLVLNCSFTDSAIYNLQWFRQDPGKGLTSLLLIQSSQREQTSGRLNASLDKSSGRSTLYIAASQPGDSATYLCAVLMDSNYQLIWGAGTKLIIKP Vbeta: DAGITQSPRYKITETGRQVTLMCHQTWSHSYMFWYRQDLGHGLRLIYYSAAADITDKGEVPDGYVVSRSKTENFPLTLESATRSQTSVYFCASSEDGMNTEAFFGQGTRLTVV",binding result,[5],recognises
same,EC50 of peptide,[6],6 nM
same,EC50 of peptide,[7],≤ 10 nM
"TCR58 (TCR, V domains shown) Valpha: RKEVEQDPGPFNVPEGATVAFNCTYSNSASQSFFWYRQDCRKEPKLLMSVYSSGNEDGRFTAQLNRASQYISLLIRDSKLSDSATYLCVASGDSSYKLIFGSGTRLLVRP Vbeta: EPEVTQTPSHQVTQMGQEVILRCVPISNHLYFYWYRQILGQKVEFLVSFYNNEISEKSEIFDDQFSVERPDGSNFTLKIRSTKLEDSAMYFCASSDPLSTYNEQFFGPGTRLTVL",binding result,[8],no recognition
same,binding result,[9],no recognition
same,binding result,[10],no recognition
same,EC50 of peptide,[11],300 nM
